Measurements as given in patent US20260209386A1 (MYTHIC THERAPEUTICS, published 2026).

T1: Human PTK7 Protein, His Tag, Acro Biosystems (human, UniProt Q13308 31-704)
T1 construct: Bought protein; also called CCK4; not shown: His tag
T1 sequence: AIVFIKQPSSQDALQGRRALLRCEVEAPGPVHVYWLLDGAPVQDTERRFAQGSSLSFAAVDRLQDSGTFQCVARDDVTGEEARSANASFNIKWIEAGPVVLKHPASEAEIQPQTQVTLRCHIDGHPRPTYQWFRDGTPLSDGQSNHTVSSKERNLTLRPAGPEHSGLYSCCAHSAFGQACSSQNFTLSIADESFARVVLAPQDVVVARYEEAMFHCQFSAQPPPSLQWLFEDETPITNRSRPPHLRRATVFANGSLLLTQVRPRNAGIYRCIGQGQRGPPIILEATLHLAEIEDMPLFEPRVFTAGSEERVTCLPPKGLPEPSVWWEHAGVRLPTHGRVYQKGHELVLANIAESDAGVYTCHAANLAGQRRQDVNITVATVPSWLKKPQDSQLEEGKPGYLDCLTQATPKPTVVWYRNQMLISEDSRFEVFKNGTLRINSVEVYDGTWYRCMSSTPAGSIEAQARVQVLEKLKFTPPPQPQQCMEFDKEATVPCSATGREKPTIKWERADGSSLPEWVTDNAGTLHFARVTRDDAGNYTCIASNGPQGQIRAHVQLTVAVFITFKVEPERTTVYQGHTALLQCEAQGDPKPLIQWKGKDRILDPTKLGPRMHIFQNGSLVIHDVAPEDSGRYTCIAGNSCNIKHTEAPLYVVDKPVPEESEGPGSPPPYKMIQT

T2: Human PTK7 Protein, His Tag (Acro Biosystems) (human, UniProt Q13308 31-704)
T2 construct: Bought His-tagged recombinant human PTK7; also called CCK4; Tyrosine-protein kinase-like 7
T2 sequence: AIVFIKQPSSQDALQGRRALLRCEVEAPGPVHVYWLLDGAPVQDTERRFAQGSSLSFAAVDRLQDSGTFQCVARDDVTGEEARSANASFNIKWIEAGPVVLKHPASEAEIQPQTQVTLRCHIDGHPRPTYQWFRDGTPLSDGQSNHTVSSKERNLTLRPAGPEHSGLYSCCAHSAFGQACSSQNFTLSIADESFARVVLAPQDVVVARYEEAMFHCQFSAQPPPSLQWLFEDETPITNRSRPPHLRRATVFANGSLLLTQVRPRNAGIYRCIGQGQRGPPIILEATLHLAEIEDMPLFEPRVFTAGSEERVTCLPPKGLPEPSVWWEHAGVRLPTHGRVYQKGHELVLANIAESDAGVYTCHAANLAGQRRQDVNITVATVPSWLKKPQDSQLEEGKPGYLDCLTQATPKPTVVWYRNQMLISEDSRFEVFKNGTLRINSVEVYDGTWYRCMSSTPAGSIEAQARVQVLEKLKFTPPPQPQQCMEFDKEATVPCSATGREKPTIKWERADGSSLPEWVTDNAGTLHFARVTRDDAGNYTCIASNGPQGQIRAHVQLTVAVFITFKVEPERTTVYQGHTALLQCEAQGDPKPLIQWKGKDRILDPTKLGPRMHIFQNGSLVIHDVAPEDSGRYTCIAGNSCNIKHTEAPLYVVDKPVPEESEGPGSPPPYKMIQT

B1: MYT11248 (antibody, V domains shown)
VH: EVQLVESGGGLVQPGGSLRLSCTASGIDLSSYVMGWVRQAPGKGLEWVGYIYGGGGTYYATWARGRFTISRDTSKNTVYLQMNSLRAEDTAVYFCARAAADFYFNLWGQGTLVTVSS
VL: EIVMTQSPSTLSASVGDRVIITCQASQSISSYLAWYQQKPGKAPKLLIYDISDLASGVPSRFSGSGSGAEFTLTISSLQPDDFATYYCQSYYWISNSGHAFGQGTKLTVL
notes: LC variant of MYT9460, sub at LCV pos 99 (L3 11)
B2: MYT11253 (antibody, V domains shown)
VH: EVQLVESGGGLVQPGGSLRLSCTASGIDLSSYVMGWVRQAPGKGLEWVGYIYGGGGTYYATWARGRFTISRDTSKNTVYLQMNSLRAEDTAVYFCARAAADFYFNLWGQGTLVTVSS
VL: EIVMTQSPSTLSASVGDRVIITCQASQSISSYLAWYQQKPGKAPKLLIYDISDLASGVPSRFSGSGSGAEFTLTISSLQPDDFATYYCQSYYWISASGAAFGQGTKLTVL
notes: LC variant of MYT9460, Ala sub at LCV pos 96 (L3 08)
B3: MYT11249 (antibody, V domains shown)
VH: EVQLVESGGGLVQPGGSLRLSCTASGIDLSSYVMGWVRQAPGKGLEWVGYIYGGGGTYYATWARGRFTISRDTSKNTVYLQMNSLRAEDTAVYFCARAAADFYFNLWGQGTLVTVSS
VL: EIVMTQSPSTLSASVGDRVIITCQASQSISSYLAWYQQKPGKAPKLLIYDISDLASGVPSRFSGSGSGAEFTLTISSLQPDDFATYYCQSYYWISNSGAHFGQGTKLTVL
notes: LC variant of MYT9460, sub at LCV pos 100 (L3 12)
B4: MYT10988 (antibody, V domains shown)
VH: EVQLVESGGGLVQPGGSLRLSCTASGFSLSSYAMGWVRQAPGKGLEWVGFINAGGNTYYANWAKGRFTISRDTSKNTVYLQMNSLRAEDTAVYFCARRYSRASGWYHLWGQGTLVTVSS
VL: EIVMTQSPSTLSASVGDRVIITCQASQSISSYLAWYQQKPGKAPKLLIYAASTLASGVPSRFSGSGSGAEFTLTISSLQPDDFATYYCQSYSYSSGIDYGDVFGQGTKLTVL
notes: MYT9359 HC variant; captured on anti-human Fc sensor
B5: MYT10975 (antibody, V domains shown)
VH: EVQLVESGGGLVQPGGSLRLSCTASGFSLSSYAMGWVRQAPGKGLEWVGFINAGGNTYYANWAHGRFTISRDTSKNTVYLQMNSLRAEDTAVYFCARRYSRASGWYDLWGQGTLVTVSS
VL: EIVMTQSPSTLSASVGDRVIITCQASQSISSYLAWYQQKPGKAPKLLIYAASTLASGVPSRFSGSGSGAEFTLTISSLQPDDFATYYCQSYSYSSGIDYGDVFGQGTKLTVL
notes: as for B4
B6: MYT10977 (antibody, V domains shown)
VH: EVQLVESGGGLVQPGGSLRLSCTASGFSLSSYAMGWVRQAPGKGLEWVGFINAGGNTYYANWAKGRFTISRDTSKNTVYLQMNSLRAEDTAVYFCHRRYSRASGWYDLWGQGTLVTVSS
VL: EIVMTQSPSTLSASVGDRVIITCQASQSISSYLAWYQQKPGKAPKLLIYAASTLASGVPSRFSGSGSGAEFTLTISSLQPDDFATYYCQSYSYSSGIDYGDVFGQGTKLTVL
notes: as for B4
B7: MYT10976 (antibody, V domains shown)
VH: EVQLVESGGGLVQPGGSLRLSCTASGFSLSSYAMGWVRQAPGKGLEWVGFINAGGNTYYANWAKHRFTISRDTSKNTVYLQMNSLRAEDTAVYFCARRYSRASGWYDLWGQGTLVTVSS
VL: EIVMTQSPSTLSASVGDRVIITCQASQSISSYLAWYQQKPGKAPKLLIYAASTLASGVPSRFSGSGSGAEFTLTISSLQPDDFATYYCQSYSYSSGIDYGDVFGQGTKLTVL
notes: as for B4
B8: MYT10956 (antibody, V domains shown)
VH: EVQLVESGGGLVQPGGSLRLSCTASGFSLSHYAMGWVRQAPGKGLEWVGFINAGGNTYYANWAKGRFTISRDTSKNTVYLQMNSLRAEDTAVYFCARRYSRASGWYDLWGQGTLVTVSS
VL: EIVMTQSPSTLSASVGDRVIITCQASQSISSYLAWYQQKPGKAPKLLIYAASTLASGVPSRFSGSGSGAEFTLTISSLQPDDFATYYCQSYSYSSGIDYGDVFGQGTKLTVL
notes: as for B4
B9: MYT10967 (antibody, V domains shown)
VH: EVQLVESGGGLVQPGGSLRLSCTASGFSLSSYAMGWVRQAPGKGLEWVGFINAGGHTYYANWAKGRFTISRDTSKNTVYLQMNSLRAEDTAVYFCARRYSRASGWYDLWGQGTLVTVSS
VL: EIVMTQSPSTLSASVGDRVIITCQASQSISSYLAWYQQKPGKAPKLLIYAASTLASGVPSRFSGSGSGAEFTLTISSLQPDDFATYYCQSYSYSSGIDYGDVFGQGTKLTVL
notes: as for B4
B10: MYT10972 (antibody, V domains shown)
VH: EVQLVESGGGLVQPGGSLRLSCTASGFSLSSYAMGWVRQAPGKGLEWVGFINAGGNTYYAHWAKGRFTISRDTSKNTVYLQMNSLRAEDTAVYFCARRYSRASGWYDLWGQGTLVTVSS
VL: EIVMTQSPSTLSASVGDRVIITCQASQSISSYLAWYQQKPGKAPKLLIYAASTLASGVPSRFSGSGSGAEFTLTISSLQPDDFATYYCQSYSYSSGIDYGDVFGQGTKLTVL
notes: as for B4
B11: MYT10987 (antibody, V domains shown)
VH: EVQLVESGGGLVQPGGSLRLSCTASGFSLSSYAMGWVRQAPGKGLEWVGFINAGGNTYYANWAKGRFTISRDTSKNTVYLQMNSLRAEDTAVYFCARRYSRASGWHDLWGQGTLVTVSS
VL: EIVMTQSPSTLSASVGDRVIITCQASQSISSYLAWYQQKPGKAPKLLIYAASTLASGVPSRFSGSGSGAEFTLTISSLQPDDFATYYCQSYSYSSGIDYGDVFGQGTKLTVL
notes: as for B4
B12: MYT10968 (antibody, V domains shown)
VH: EVQLVESGGGLVQPGGSLRLSCTASGFSLSSYAMGWVRQAPGKGLEWVGFINAGGNHYYANWAKGRFTISRDTSKNTVYLQMNSLRAEDTAVYFCARRYSRASGWYDLWGQGTLVTVSS
VL: EIVMTQSPSTLSASVGDRVIITCQASQSISSYLAWYQQKPGKAPKLLIYAASTLASGVPSRFSGSGSGAEFTLTISSLQPDDFATYYCQSYSYSSGIDYGDVFGQGTKLTVL
notes: as for B4
B13: MYT10973 (antibody, V domains shown)
VH: EVQLVESGGGLVQPGGSLRLSCTASGFSLSSYAMGWVRQAPGKGLEWVGFINAGGNTYYANHAKGRFTISRDTSKNTVYLQMNSLRAEDTAVYFCARRYSRASGWYDLWGQGTLVTVSS
VL: EIVMTQSPSTLSASVGDRVIITCQASQSISSYLAWYQQKPGKAPKLLIYAASTLASGVPSRFSGSGSGAEFTLTISSLQPDDFATYYCQSYSYSSGIDYGDVFGQGTKLTVL
notes: as for B4
B14: MYT10953 (antibody, V domains shown)
VH: EVQLVESGGGLVQPGGSLRLSCTASGFHLSSYAMGWVRQAPGKGLEWVGFINAGGNTYYANWAKGRFTISRDTSKNTVYLQMNSLRAEDTAVYFCARRYSRASGWYDLWGQGTLVTVSS
VL: EIVMTQSPSTLSASVGDRVIITCQASQSISSYLAWYQQKPGKAPKLLIYAASTLASGVPSRFSGSGSGAEFTLTISSLQPDDFATYYCQSYSYSSGIDYGDVFGQGTKLTVL
notes: as for B4
B15: MYT10965 (antibody, V domains shown)
VH: EVQLVESGGGLVQPGGSLRLSCTASGFSLSSYAMGWVRQAPGKGLEWVGFINAHGNTYYANWAKGRFTISRDTSKNTVYLQMNSLRAEDTAVYFCARRYSRASGWYDLWGQGTLVTVSS
VL: EIVMTQSPSTLSASVGDRVIITCQASQSISSYLAWYQQKPGKAPKLLIYAASTLASGVPSRFSGSGSGAEFTLTISSLQPDDFATYYCQSYSYSSGIDYGDVFGQGTKLTVL
notes: as for B4
B16: MYT10992 (antibody, V domains shown)
VH: EVQLVESGGGLVQPGGSLRLSCTASGFSLSSYAMGWVRQAPGKGLEWVGFINAGGNTYYANWAKGRFTISRDTSKNTVYLQMNSLRAEDTAVYFCARRYSRASGWYDLWGQGTLVTVSS
VL: EIVMTQSPSTLSASVGDRVIITCHASQSISSYLAWYQQKPGKAPKLLIYAASTLASGVPSRFSGSGSGAEFTLTISSLQPDDFATYYCQSYSYSSGIDYGDVFGQGTKLTVL
notes: MYT9359 LC variant; captured on anti-human Fc sensor
B17: MYT10971 (antibody, V domains shown)
VH: EVQLVESGGGLVQPGGSLRLSCTASGFSLSSYAMGWVRQAPGKGLEWVGFINAGGNTYYHNWAKGRFTISRDTSKNTVYLQMNSLRAEDTAVYFCARRYSRASGWYDLWGQGTLVTVSS
VL: EIVMTQSPSTLSASVGDRVIITCQASQSISSYLAWYQQKPGKAPKLLIYAASTLASGVPSRFSGSGSGAEFTLTISSLQPDDFATYYCQSYSYSSGIDYGDVFGQGTKLTVL
notes: as for B4
B18: MYT10954 (antibody, V domains shown)
VH: EVQLVESGGGLVQPGGSLRLSCTASGFSHSSYAMGWVRQAPGKGLEWVGFINAGGNTYYANWAKGRFTISRDTSKNTVYLQMNSLRAEDTAVYFCARRYSRASGWYDLWGQGTLVTVSS
VL: EIVMTQSPSTLSASVGDRVIITCQASQSISSYLAWYQQKPGKAPKLLIYAASTLASGVPSRFSGSGSGAEFTLTISSLQPDDFATYYCQSYSYSSGIDYGDVFGQGTKLTVL
notes: as for B4

Target: T1, Human PTK7 Protein, His Tag, Acro …
Assay: BLI (Octet), antibody on anti-human Fc sensor, 50 nM PTK7, dissociation at pH 7.4 or 5.4; 1 = pH dependent binding relative to parent

Binding result, binds:
B1, B2, B3

Target: T2, Human PTK7 Protein, His Tag (Acro …)
Assay: BLI (Octet), antibody on anti-human Fc sensor, 50 nM PTK7; 2 = substantially similar binding

Binding result, binds:
B4, B5, B6, B7, B8, B9, B10, B11, B12, B13, B14, B15, B16, B17, B18
